Test: label from the status in PepcDB records

Sequence: PPAAVGPWDDILAPLYRYTRARARELAETRETMQSMLAAAQALPDGVVTLNEDFQIDWANRMARRHLGLRLPADRGHNLLNLLRAPEFVAYAHRGHWPEPILVRLSLNGQERVMMIHLAGYAS
- protein production: failed

Sequence: MPDPKPEVLDFLLSRRSRPAKTLALPVPDRAALAPILTGALRTPDHGKLEPWRLIVLEAGAMPRLAALADARAEALALDPDKSAKGRAQFAQSHLAVVVVARPEPSDKVPEIEQILSAGAVCLSLLNAAQAAGWGANWLTGWPAYDRGFLREGLGLAETEFVAGIVHIGSETVAPPERPRPDVASLTTWVSE
- protein production: failed

Sequence: MKSCSRSSSVRLCVRCTGLSLWCCIGHATSVIKSVRNMQSVIGNGYKRSPTGKESRMTPLTSDFLSSSVVFLSAAVIAVPLAQRAGLGSVLGYLLAGIAIGPWGLGLIRDVQAIMHFAEFGVVLLLFLIGLELNPKKLWNLRGPILGLGGAQVVVTTAVLSSVAYLLGVSWQSALVIGMALALSSTAIALRVIEEHGLTRTEAGQSGFAVLLFQDIAVIPMLALLPILAGNSSGDWLNALWMTGGIAALLLGGHFLLNPLFRYIALSGVRELFTVAALLLVVGIALLMQKVGLSMALGTFLAGVILAESEFRHELEIAIDPFKGLLLGLFFISVGMAVDVGLLLVKPLQIMLAVLGLVIVKGLVLYLLARLSGTVAKARSKMAAILSQGGEFAFVIFTAASAEGLLTASQVSFLLVVVSLSMVTTPLLLSAQKYWFARQLNIEENPLTPDVENKEPRVIIVGFGRFGQIVGRLLYANKIKVTILESDASQVRLLRKYGYKVFYGDATNLELLRAAGVEQAEALVVCTDDPEQVITIVELCQQHFPNLKLLARARSRVEAYQLMSLGVQNYTRETFLSALDLGRKALVQLGMHPYQAKRAEEHFHRLDKTMLKELLPQHNEDKQLELRAKEARTELEEIFSREMDSDQLSRRYWEKE
- protein production: failed

Sequence: MAKNAPRFVCQACGAVYPRWMGRCEACGEWNSIAEEAPAEALPKGQTGGRGGQRLSFVSLEGVGAPPPRLLTGIPELDRVAGGGLVAGSALLIGGDPGIGKSTLLLQAVAGLARGGARSVYISGEEAIDQVRLRALRLGLEKAPVDLAAATSVRDIVATLDSGEPPDVVVIDSIQTMYLDTLDSAPGTVAQVRAGSHELIRLAKRRGFVLFLVGHVTKEGQMAGPRVMEHMVDAVIYFEGERGHPFRILRAVKNRFGATDEIGVFEMSDAGLSEVPNPSALFLAERRGNVTGSCVFAGMEGTRPMLVEIQALVGPSAPGSARRAVVGWDGGRLAMVMAVLETRCGLALGGNDVYLNVAGGLRIGEPAADLAVAAALVSSFSGVPVPPDMVVFGEIGLSGEIRAVAHGDTRLKEAAKLGFDQALMPARPRDSGKRGGPGVKEGLRMREIGHLQDLVALLAPPENAGQGQRLEHHHHHH
- protein production: not failed

Sequence: MGFLEAYKSFWRNYVNFSGRAPRSAYWYVVLWNVIIFVILYALAFIFGISAIMEAAMGGTGMAGGGGAIVLVIILWLYLLAALLPTISLMVRRLHDSGKSGFFVLLSLIPFAGGIIMLIFMCLESDGPNQYGDGDIDSKFDF
- protein production: failed

Sequence: MNIILNVFLIFVSAILTKLFALFAQHTKLIDIPNERNLHSRPTVRGGGLVFIGLSLFCWFFICNSQFFLTLDQFIFSIAIIFIATISFIDDFYNLSVTIRFFFQCLIAFLIVIFILPSQLDFGLFLFENTYLIAFFLFFAVIWAINHFNFMDGLDGFCASQAIFLLAAYALFFNSAGSLIYQDFCLILISSLAGFLIFNFPPAKIFMGDVGSASLGLITFFIAIIAQKNYQIPILYWFILNSLFLFDSTVTLIRRIIKHEKWFSPHKKHAYQRLKQLGINSRFILLGQAIINGSLFLSVMFMHFQFFNLKNLIIIQLCYLSAIYFFIEKKYPME
- protein production: failed

Sequence: MSASVLSDPTMLISTPEVILVSPVSVTQISGDEPDSVTCDCCGLTEECTQSYIEMVRERYMGKWICGLCSEAVKYEVMRTKRLLTTEEAMARHMNMCNKFKSSSPPPNPTGHLISAMRQILRKSLDSPRMLRSMPNSPSKDDQDHHHDCVSNVLSRSDSCFASLT
- protein production: failed

Sequence: MTPPASSSPCSSSDKRNRAVPSAKALMVWRAGPDGRPLDPSQFPQDPPARRDGDGGGAEAWLNLVHPEEREAVLLLWRRALREGEEFEARYRLHRGLSGYRWALGQGRPLRGDDGEVREWIGTVVDIHDHMEAERTIALSEERLRLALDSADLGVWECTIATNQWWFSEAALRILGCPPDAETSIETVMGAIHSDDLDGLRARWHAARTGRARDRMEGEFRIQRGGGRLGWIACSARLVADDGKAVTRMLGTLRDITKTRLQREKLYHLAHFDPLTGLPNRHEMITRTQATLASGGAAGGAGAILLLDLDGFKEANDTLGQATGDALLKRIAHRLVSSLPADSLIGRVGGDEFLVVVPGVAEQWTATRIADGLYDVLTVPFVIGDRRIPLSGRIGIALAPRDGTSAQDLMTHAELALQETKTISGCVTRFFSPRLHDEARERQDMGLELRRATDNGEFELFYQPQIRLSDRAVVGAEALLRWRHPTRGVMPPAAFLHVLKRGPLAGEVGEWVVAKACADAAGLLNAGSRIRMAVNLFSAQFKAGTVDATVRRSLLESGLPAELLELEITEKVTLDRDEGILTCLKGLRDLGCGVAFDDYGTGYASLSMLKRYPLTRLKIDRAFVQHLAESPKDGAIVRAVLSLGNTFGLSVTAEGIEEEEQEKLLLGQGCDEGQGYFFGRPMPLADFIQFLARVKKNPGEFPTPA
- protein production: failed

Sequence: MSLLLCDIGNSNANFLDDNKYFTLNIDQFLEFKNEQKIFYINVNEHLKEHLKNQKNFINLEPYFLFDTIYQGLGIDRIAACYTIEDGVVVDAGSAITIDIISNSIHLGGFILPGIANYKKIYSHISPRLKSEFNTQVSLDAFPQKTMDALSYGVFKGIYLLIKDAAQNKKLYFTGGDGQFLANYFDHAIYDKLLIFRGMKKIIKENPNLLYEGHHHHHH
- protein production: not failed

Sequence: MSNPNEDSPMILQRIFALALLAMCAALAVMAWPYQAAFSYEPVGPRAYPLLVLGLMGLGLLYLVFRPTPIVRKDDEPELDRETLIKITACVGLLIVFAATFEALGFILSAILVGLPMARLYGGRWLQSAIVVAGMSIFLYWLFDRVMDVPLPLGLLSVLEN
- protein production: failed

Sequence: MRGEFLSRSADETREYARRFASGLKPGDTVCLTGPLGAGKTEFMRGITEAFGCEEQLSSPTFSLMNIYEGLLRGQPFELHHFDLYRLESEKELDSAGFDDYLSGPFLSVVEWGERFASLDRRYTRRVQLFIAGESQRKIVIT
- protein production: failed

Sequence: MSLRIRVPATTANLGPGFDSCGLALTLYLTLDIGAEADSWYIEHNIGGGIPHDETNVIIETALNLAPNLTPHHLVMTCDIPPARGLGSSSAAVVAGIELANTLAELNLSKEEKVRIAAEIEGHPDNVAPAVLGNWVVGAKLDGEDFYVRHLFPDCALIAFIPKAELLTSESRGVLPDTLPFKEAVQASSIANVMIAAILRNDMALAGEMMERDLWHEKYRSQLVPHLTQIRDVAKSQGAYAACLSGAGPTVLVFAPRNLANTLQTSLQTLEIDADVLLLDVEGSGAEVFREGHHHHHH
- protein production: not failed

Sequence: MALSADIVGMHYRYPDHYEVEREKIREYAVAVQNDDAWYFEEDGAAELGYKGLLAPLTFICVFGYKAQAAFFKHANIATAEAQIVQVDQVLKFEKPIVAGDKLYCDVYVDSVREAHGTQIIVTKNIVTNEEGDLVQETYTTLAGRAGLEHHHHHH
- protein production: not failed

Sequence: MLTENYNKQAIAQAFGRAAGCYDRFAELQRTSGERLLALMPAHSGLQVLDAGCGTGHFSRYWRQAGRNVTALDLSAEMLAYAREQHAADRYLEGDIENLPLADSCVDICYSNLAVQWCDSLPRALGELYRITRPGGVIAFATLADGSLSELSQAWQRLDGTQRTNRFLPHSVIDAACQPYRHHLLQEREVCLFPDVLALMKSLKGIGATWLHEGRTPGLLSRARLAALSACYPQEQGGYPLSYQLVYGVIYRDLEHHHHHH
- protein production: failed

Sequence: MWRVRCKAKGGTHLLQGLSSRTRLRELQGQIAAITGIAPGSQRILVGYPPECLDLSDRDITLGDLPIQSGDMLIVEEDQTRPKASP
- protein production: not failed

Sequence: MGRSQATAESYRDSLTIFKNYLVGELGKSISTFQFSDCTKECIYNFREYLLANGSQPSTVNVRVAAIRAYLNYASDMDISVQSVALAILEHHHHHH
- protein production: failed

Sequence: MAKYFGTDGIRGEVANSTITVEFTQKLGNAVGSLINQKNYPKFVIVGQDTRSSGGFLKFALVSGLNAAGIDVLDLGVVPTPVVAFMTVKHRAAAGFVITASHNKFTDNGIKLFSSNGFKLDDALEEEVEDMIDGDFIYQPQFKFGSYKILANAIDEYIESIYSRFAKFVNYKGKVVVDCAHGAASHNFEALLDKFGINYVSIASNPDGLNINVGCGATCVSNIKKAVKEQKADLGISLDGDADRIIIVDENGQEIDGDGILNILAQYSDICGGTNGIVGTQMTNMSYENHYRANKIPFIRSKVGDRYVLEDLVKYGYKIGGESSGHVINLNFGTTGDGLFTAIQLLAIFSQADKPVSEFKLQGELMQQTLINVPLTKKVAREDLQKVASDVNDVEKRLGNRGRVLLRPSGTEPVLRVMVEADDKSLATNEAEYLVEKVKQKLV
- protein production: not failed

Sequence: MPYLAGCGAVLYVDVMPEGTLLTRGVSASPTRCGRTPPGGRGVWLLCATIFYWAVARFGMALFSLAPENITPLWLASGVGLIMCLEAGLSAVPCIALASAVANFPGLSASGGESPLLYAVLTGTADGLSAGLLAALGSRVLQGGITSVLDLLRGVVLVCLPATLIGGVAITLCLFTGGYVPRDVLCQMSFSLMAGDTLGVLLVFPLWRAWHVLPLPSRTELCWMAGVLCLCLLSIWSAFFVEGAAIHMLMPLLVLLSCNVRINGVMVVLFLTVIAVFIATAHRVGPFHMPTQGEAVMLLVSFAASTTLTTLGLSLYRHLLAQAGARATMWEQRAGIDPLTGLCNRARFDEVLLAELQRLQRQDSPLSLMMFDADHFKPYNDMYGHVAGDACLKRVAGVLRAVAHRASDVVARYGGEEFVCILPGTDRDSAYALAEKVRQGVRALAIPHVGSPVAGVLTVSAGVVTVHGCDGLDPQEVVAQVDRALYQAKGAGRDRVMVAKGAAKEGMQYGECALSGVQRLVWSEDYACGEPRIDASHRALLAKADSIMSSLGGADGLNARRACILALVDAVRMHFREEERVLAAIGYPKAGEHAVIHEALLQRGASLVAAWERGGMSLDDVVITLVHGMVMRHMLDDDSAFFEHVQQWGAGGTQP
- protein production: failed

Sequence: MAILHGSWILNEQESCLFIWGETWRSPQVDFNFAEISLNPLALSALELSEWLQSQHQAIAKLLPQQLEKRTSKAASSVKINLLTHSQIIALPTEISQPRKKETILISPVHSAALASESDSEVYLQTWRVEGFCLPPSAAIKLLTSLPLNITSGENAFLGGDLRFWSQIARWSLDLISRSKFLPIIQRQPNNSVSAKWQVLLDSAVDGTRLEKFAAKMPLVCRTYQEIGSGESPIYIDFPSQPQDLILGFLNSAIDTQLREMVGNQPVVETRLMASLPSAVRQWLQALIAASNSIDADAVGLERLEAALKAWTMPLQYQLASKNQFRTCFELRSPEPDETEWTLAYFLQAADDPEFLVDAATIWQNPVEQLIYQQRTIEEPQETFLRGLGLASRLYPVIAPTLDTESPQFCHLKPMQAYEFIKAVAWRFEDSGLGVILPPSLANREGWANRLGLKISAETPKKKPGRLGLQSLLNFQWHLAIGGQTISKAEFDRLVALKSPLVEINGEWVELRPQDIKTAEAFFTARKDQMALSLEDALRLSSGDTQVIEKLPVVSFEASGALQELIGALTNNQAVAPLPTPKNFQGQLRPYQERGAAWLAFLERWGLGACLADDMGLGKTIQFIAFLLHLKEQDVLEKPTLLVCPTSVLGNWEREVRKFAPTLKVLQYHGDKRPKGKAFQEAVKKHDLVITSYSLIHRDIKSLQGIPWQIIVLDEAQNVKNAEAKQSQAVRQLETTFRIALTGTPVENRLQELWSILDFLNPGYLGNKQFFQRRFAMPIEKYGDAASLNQLRALVQPFILRRLKTDRDIIQDLPDKQEMTVFCGLTGEQAALYQKAVETSLAEIESAEGLQRRGMILALLIKLKQICNHPAQYLKINTLEQHSSGKLQRLEEMLEEVLAESNTYGVAGAGRALIFTQFAEWGKLLKPHLEKQLGREIFFLYGGTSKKQREEMIDRFQHDPQGPPIMILSLKAGGVGLNLTRANHVFHFDRWWNPAVENQATDRVFRIGQTRNVQVHKFVCNGTLEEKIHDMIESKKQLAEQVVGAGEEWLTELDTDQLRNLLILDRSTVIDEEAD
- protein production: failed
